Measurements from FireProtDB (doi:10.1021/bi00150a028).

Conditions: Homo sapiens, pH 3, Thermal, DSC, glycine-HCl 0.05 M, reversible: yes, whole UniProt chain shown

B1: Lysozyme C wild type, P61626 (protein)
chain: MKALIVLGLVLLSVTVQGKVFERCELARTLKRLGMDGYRGISLANWMCLAKWESGYNTRATNYNAGDRSTDYGIFQINSRYWCNDGKTPGAVNACHLSCSALLQDNIADAVACAKRVVRDPQGIRAWVAWRNRCQNRDVRQYVQGCGV
For B1, the “heat capacity change of unfolding” value (57 °C) was 1.55 kcal/mol/K, the “unfolding enthalpy (calorimetric)” value (57 °C) was 421 kJ/mol and the unfolding free energy (57 °C) was 19.2 kJ/mol. It also gave a Tm of 71.4 °C.
